Reference: patent US20250361268A1, “NOVEL ANTI-INFLAMMATORY PEPTIDE AND USE THEREOF” (NOVACELL TECHNOLOGY INC., priority 2022, published 2025)

T1: formyl peptide receptor 2 (FPR2) (UniProt P25090 1-351, limits assumed)
T1 sequence (looked up): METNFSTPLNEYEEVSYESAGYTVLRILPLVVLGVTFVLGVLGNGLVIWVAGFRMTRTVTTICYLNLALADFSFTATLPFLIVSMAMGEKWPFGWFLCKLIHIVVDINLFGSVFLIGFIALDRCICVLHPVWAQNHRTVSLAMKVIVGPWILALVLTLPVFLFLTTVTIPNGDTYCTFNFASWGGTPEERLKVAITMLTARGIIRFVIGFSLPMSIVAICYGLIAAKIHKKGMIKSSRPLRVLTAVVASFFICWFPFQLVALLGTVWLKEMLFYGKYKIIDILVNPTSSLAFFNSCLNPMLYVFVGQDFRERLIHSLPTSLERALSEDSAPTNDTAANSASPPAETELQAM

T2: FPR1 (UniProt P21462 1-350, limits assumed)
T2 sequence (looked up): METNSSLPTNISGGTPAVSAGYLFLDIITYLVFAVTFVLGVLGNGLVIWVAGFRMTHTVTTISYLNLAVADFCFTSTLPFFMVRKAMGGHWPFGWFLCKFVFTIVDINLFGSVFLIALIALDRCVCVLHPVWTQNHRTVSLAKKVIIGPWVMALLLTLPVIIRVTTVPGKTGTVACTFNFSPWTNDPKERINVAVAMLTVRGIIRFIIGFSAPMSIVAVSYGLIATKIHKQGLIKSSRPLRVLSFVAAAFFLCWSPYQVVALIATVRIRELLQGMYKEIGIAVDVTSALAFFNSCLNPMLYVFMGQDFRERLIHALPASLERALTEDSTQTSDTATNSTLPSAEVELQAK

B1: peptide of SEQ ID NO 56 (peptide)
peptide: MRYKPM
HELM: PEPTIDE1{[CCCC(=O)[*:2]].M.R.Y.K.P.[dM].[am]}$$$$V2.0
SMILES: CCCC(=O)N[C@@H](CCSC)C(=O)N[C@@H](CCCNC(=N)N)C(=O)N[C@@H](Cc1ccc(O)cc1)C(=O)N[C@@H](CCCCN)C(=O)N1CCC[C@H]1C(=O)N[C@H](CCSC)C(N)=O
B2: peptide of SEQ ID NO 51 (peptide)
peptide: RMRYKPM
HELM: PEPTIDE1{[ac].R.M.R.Y.K.P.[dM].[am]}$$$$V2.0
SMILES: CSCC[C@H](NC(=O)[C@H](CCCNC(=N)N)NC(C)=O)C(=O)N[C@@H](CCCNC(=N)N)C(=O)N[C@@H](Cc1ccc(O)cc1)C(=O)N[C@@H](CCCCN)C(=O)N1CCC[C@H]1C(=O)N[C@H](CCSC)C(N)=O
B3: peptide of SEQ ID NO 65 (peptide)
peptide: PMRYKPM
HELM: PEPTIDE1{[CCCCCCCC(=O)[*:2]].P.M.R.Y.K.P.[dM].[am]}$$$$V2.0
SMILES: CCCCCCCC(=O)N1CCC[C@H]1C(=O)N[C@@H](CCSC)C(=O)N[C@@H](CCCNC(=N)N)C(=O)N[C@@H](Cc1ccc(O)cc1)C(=O)N[C@@H](CCCCN)C(=O)N1CCC[C@H]1C(=O)N[C@H](CCSC)C(N)=O
B4: peptide of SEQ ID NO 47 (peptide)
peptide: PMRYKYM
HELM: PEPTIDE1{[CCCC(=O)[*:2]].P.M.R.Y.K.Y.[dM].[am]}$$$$V2.0
SMILES: CCCC(=O)N1CCC[C@H]1C(=O)N[C@@H](CCSC)C(=O)N[C@@H](CCCNC(=N)N)C(=O)N[C@@H](Cc1ccc(O)cc1)C(=O)N[C@@H](CCCCN)C(=O)N[C@@H](Cc1ccc(O)cc1)C(=O)N[C@H](CCSC)C(N)=O
B5: peptide of SEQ ID NO 57 (peptide)
peptide: MRYKPM
HELM: PEPTIDE1{[CCCCCCCC(=O)[*:2]].M.R.Y.K.P.[dM].[am]}$$$$V2.0
SMILES: CCCCCCCC(=O)N[C@@H](CCSC)C(=O)N[C@@H](CCCNC(=N)N)C(=O)N[C@@H](Cc1ccc(O)cc1)C(=O)N[C@@H](CCCCN)C(=O)N1CCC[C@H]1C(=O)N[C@H](CCSC)C(N)=O
B6: peptide of SEQ ID NO 60 (peptide)
peptide: HMRYKPM
HELM: PEPTIDE1{[CCCC(=O)[*:2]].H.M.R.Y.K.P.[dM].[am]}$$$$V2.0
SMILES: CCCC(=O)N[C@@H](Cc1c[nH]cn1)C(=O)N[C@@H](CCSC)C(=O)N[C@@H](CCCNC(=N)N)C(=O)N[C@@H](Cc1ccc(O)cc1)C(=O)N[C@@H](CCCCN)C(=O)N1CCC[C@H]1C(=O)N[C@H](CCSC)C(N)=O
B7: peptide of SEQ ID NO 53 (peptide)
peptide: RMRYKPM
HELM: PEPTIDE1{[CCCCCCCC(=O)[*:2]].R.M.R.Y.K.P.[dM].[am]}$$$$V2.0
SMILES: CCCCCCCC(=O)N[C@@H](CCCNC(=N)N)C(=O)N[C@@H](CCSC)C(=O)N[C@@H](CCCNC(=N)N)C(=O)N[C@@H](Cc1ccc(O)cc1)C(=O)N[C@@H](CCCCN)C(=O)N1CCC[C@H]1C(=O)N[C@H](CCSC)C(N)=O
B8: peptide of SEQ ID NO 55 (peptide)
peptide: MRYKPM
HELM: PEPTIDE1{[ac].M.R.Y.K.P.[dM].[am]}$$$$V2.0
SMILES: CSCC[C@H](NC(C)=O)C(=O)N[C@@H](CCCNC(=N)N)C(=O)N[C@@H](Cc1ccc(O)cc1)C(=O)N[C@@H](CCCCN)C(=O)N1CCC[C@H]1C(=O)N[C@H](CCSC)C(N)=O
B9: peptide of SEQ ID NO 59 (peptide)
peptide: HMRYKPM
HELM: PEPTIDE1{[ac].H.M.R.Y.K.P.[dM].[am]}$$$$V2.0
SMILES: CSCC[C@H](NC(=O)[C@H](Cc1c[nH]cn1)NC(C)=O)C(=O)N[C@@H](CCCNC(=N)N)C(=O)N[C@@H](Cc1ccc(O)cc1)C(=O)N[C@@H](CCCCN)C(=O)N1CCC[C@H]1C(=O)N[C@H](CCSC)C(N)=O
B10: peptide of SEQ ID NO 50 (peptide)
peptide: RMRYKPM
HELM: PEPTIDE1{R.M.R.Y.K.P.[dM].[am]}$$$$V2.0; N-terminus assumed
SMILES: CSCC[C@H](NC(=O)[C@@H](N)CCCNC(=N)N)C(=O)N[C@@H](CCCNC(=N)N)C(=O)N[C@@H](Cc1ccc(O)cc1)C(=O)N[C@@H](CCCCN)C(=O)N1CCC[C@H]1C(=O)N[C@H](CCSC)C(N)=O
B11: peptide of SEQ ID NO 64 (peptide)
peptide: PMRYKPM
HELM: PEPTIDE1{[CCCC(=O)[*:2]].P.M.R.Y.K.P.[dM].[am]}$$$$V2.0
SMILES: CCCC(=O)N1CCC[C@H]1C(=O)N[C@@H](CCSC)C(=O)N[C@@H](CCCNC(=N)N)C(=O)N[C@@H](Cc1ccc(O)cc1)C(=O)N[C@@H](CCCCN)C(=O)N1CCC[C@H]1C(=O)N[C@H](CCSC)C(N)=O
B12: peptide of SEQ ID NO 6 (peptide)
peptide: RMRYKVM
HELM: PEPTIDE1{[ac].R.M.R.Y.K.V.[dM].[am]}$$$$V2.0
SMILES: CSCC[C@H](NC(=O)[C@H](CCCNC(=N)N)NC(C)=O)C(=O)N[C@@H](CCCNC(=N)N)C(=O)N[C@@H](Cc1ccc(O)cc1)C(=O)N[C@@H](CCCCN)C(=O)N[C@H](C(=O)N[C@H](CCSC)C(N)=O)C(C)C
B13: peptide of SEQ ID NO 54 (peptide)
peptide: MRYKPM
HELM: PEPTIDE1{M.R.Y.K.P.[dM].[am]}$$$$V2.0; N-terminus assumed
SMILES: CSCC[C@H](N)C(=O)N[C@@H](CCCNC(=N)N)C(=O)N[C@@H](Cc1ccc(O)cc1)C(=O)N[C@@H](CCCCN)C(=O)N1CCC[C@H]1C(=O)N[C@H](CCSC)C(N)=O
B14: peptide of SEQ ID NO 58 (peptide)
peptide: HMRYKPM
HELM: PEPTIDE1{H.M.R.Y.K.P.[dM].[am]}$$$$V2.0; N-terminus assumed
SMILES: CSCC[C@H](NC(=O)[C@@H](N)Cc1c[nH]cn1)C(=O)N[C@@H](CCCNC(=N)N)C(=O)N[C@@H](Cc1ccc(O)cc1)C(=O)N[C@@H](CCCCN)C(=O)N1CCC[C@H]1C(=O)N[C@H](CCSC)C(N)=O
B15: peptide of SEQ ID NO 52 (peptide)
peptide: RMRYKPM
HELM: PEPTIDE1{[CCCC(=O)[*:2]].R.M.R.Y.K.P.[dM].[am]}$$$$V2.0
SMILES: CCCC(=O)N[C@@H](CCCNC(=N)N)C(=O)N[C@@H](CCSC)C(=O)N[C@@H](CCCNC(=N)N)C(=O)N[C@@H](Cc1ccc(O)cc1)C(=O)N[C@@H](CCCCN)C(=O)N1CCC[C@H]1C(=O)N[C@H](CCSC)C(N)=O
B16: peptide of SEQ ID NO 61 (peptide)
peptide: HMRYKPM
HELM: PEPTIDE1{[CCCCCCCC(=O)[*:2]].H.M.R.Y.K.P.[dM].[am]}$$$$V2.0
SMILES: CCCCCCCC(=O)N[C@@H](Cc1c[nH]cn1)C(=O)N[C@@H](CCSC)C(=O)N[C@@H](CCCNC(=N)N)C(=O)N[C@@H](Cc1ccc(O)cc1)C(=O)N[C@@H](CCCCN)C(=O)N1CCC[C@H]1C(=O)N[C@H](CCSC)C(N)=O
B17: peptide of SEQ ID NO 63 (peptide)
peptide: PMRYKPM
HELM: PEPTIDE1{[ac].P.M.R.Y.K.P.[dM].[am]}$$$$V2.0
SMILES: CSCC[C@H](NC(=O)[C@@H]1CCCN1C(C)=O)C(=O)N[C@@H](CCCNC(=N)N)C(=O)N[C@@H](Cc1ccc(O)cc1)C(=O)N[C@@H](CCCCN)C(=O)N1CCC[C@H]1C(=O)N[C@H](CCSC)C(N)=O
B18: peptide of SEQ ID NO 7 (peptide)
peptide: RMRYKVM
HELM: PEPTIDE1{[CCCC(=O)[*:2]].R.M.R.Y.K.V.[dM].[am]}$$$$V2.0
SMILES: CCCC(=O)N[C@@H](CCCNC(=N)N)C(=O)N[C@@H](CCSC)C(=O)N[C@@H](CCCNC(=N)N)C(=O)N[C@@H](Cc1ccc(O)cc1)C(=O)N[C@@H](CCCCN)C(=O)N[C@H](C(=O)N[C@H](CCSC)C(N)=O)C(C)C
B19: peptide of SEQ ID NO 62 (peptide)
peptide: PMRYKPM
HELM: PEPTIDE1{P.M.R.Y.K.P.[dM].[am]}$$$$V2.0; N-terminus assumed
SMILES: CSCC[C@H](NC(=O)[C@@H]1CCCN1)C(=O)N[C@@H](CCCNC(=N)N)C(=O)N[C@@H](Cc1ccc(O)cc1)C(=O)N[C@@H](CCCCN)C(=O)N1CCC[C@H]1C(=O)N[C@H](CCSC)C(N)=O

Molecular target: T1, formyl peptide receptor 2 (FPR2)
Assay: cell-based or functional assay

Row | EC50 for [Ca2+] | Binder
1 | < 0.01 µM | B1
2 | < 0.01 µM | B2
3 | < 0.01 µM | B3
4 | < 0.01 µM | B4
5 | < 0.01 µM | B5
6 | < 0.01 µM | B6
7 | < 0.01 µM | B7
8 | < 0.01 µM | B8
9 | < 0.01 µM | B9
10 | < 0.01 µM | B10
11 | < 0.01 µM | B11
12 | < 0.01 µM | B12
13 | < 0.01 µM | B13
14 | < 0.01 µM | B14
15 | < 0.01 µM | B15
16 | < 0.01 µM | B16
17 | < 0.01 µM | B17
18 | < 0.01 µM | B18
19 | < 0.01 µM | B19

Molecular target: T2, FPR1
Assay: cell-based or functional assay

Row | EC50 for [Ca2+] | Binder
20 | > 10 µM | B1
21 | > 10 µM | B2
22 | > 10 µM | B3
23 | > 10 µM | B4
24 | > 10 µM | B5
25 | > 10 µM | B6
26 | > 10 µM | B7
27 | > 10 µM | B8
28 | > 10 µM | B9
29 | > 10 µM | B10
30 | > 10 µM | B11
31 | > 10 µM | B12
32 | > 10 µM | B13
33 | > 10 µM | B14
34 | > 10 µM | B15
35 | > 10 µM | B16
36 | > 10 µM | B17
37 | > 10 µM | B18
38 | > 10 µM | B19
